# Substitutions are numbered along the chain they refer to.
# B1: Abet0379: optimized anti-Aβ1-42 clone derived from Abet0144-GL (protein)
# scFv (part 1 of 2): EVQLLESGGGLVQPGGSLRLSCAASGFDFAETPLWWVRQAPGERLEWVSVIGSNQNKTAYADSVKGRFTISRDNSKDTLYLQMNSLRAEDTAVYYCAREWMDHSRPYYYYGMDVWGQGTLVTVSS
# scFv (part 2 of 2): QSVLTQPPSVSVSPGQTASITCSGHNLEDKFASWYQQKSGQSPVLVIYRDDKRPSGIPERFSASNSGHTATLTISGTQATDGADYYCATQDNFTRVFGGGTKLTVL
# modifications: left off: small tags and cut ends
# notes: optimized anti-Aβ1-42 clone derived from Abet0144-GL
# B2: Abet0322b: optimized anti-Aβ1-42 clone derived from Abet0144-GL (protein)
# scFv (part 1 of 2): EVQLLESGGGLVQPGGSLRLSCAASNEEFQYNPMWWVRQAPGKGLEWVSVIGSSGGATVYADAVKGRFTISRDNSENTLYLQMNSLRAEDTAVYYCAREWMDHSRPYYYYGMDVWGQGTLVTVSS
# scFv (part 2 of 2): SYELTQPPSVSVSPGQTASITCSGHNLGDKFASWYQQKPGQSPVLVIYRDDKRPSEIPERFSASNSGHTATLTISGTQATDEADYYCSSQDTVTRVFGGGTKLTVL
# modifications: left off: small tags and cut ends
# notes: as for B1
# B3: Abet0368: optimized anti-Aβ1-42 clone derived from Abet0144-GL (protein)
# scFv (part 1 of 2): EVQLLESGGGLVQPGGSLRLSCAASGFDFGPSPMWWVRQAPGKGLEWVSVIGKDTQNSTYADSVKGRFTISRDNSKDTLYLQMNSLKAEDTAVYYCAREWMDHSRPYYYYGMDVWGQGTLVTVSS
# scFv (part 2 of 2): B2 scFv (part 2 of 2) with G28E, A32T, P39S, E56G, T77A
# modifications: left off: small tags and cut ends
# notes: as for B1
# B4: Abet0344: optimized anti-Aβ1-42 clone derived from Abet0144-GL (protein)
# scFv (part 1 of 2): EVQLLESGGGLVQPGGSLSLSCAASGFTFSVYTMWWVRQAPGKGLEWVSVIGGNETRKAYADSVKGRFTISRDNSKNRLYLQMNSLRAEDTAVYYCAREWMDHSRPYYYYGMDVWGQGTLVTVSS
# scFv (part 2 of 2): B1 scFv (part 2 of 2) with G82E
# modifications: left off: small tags and cut ends
# notes: as for B1
# B5: Abet0371: optimized anti-Aβ1-42 clone derived from Abet0144-GL (protein)
# scFv (part 1 of 2): EVQLSESGGGLVQPGGSLRLSCAASHDAFPFDTMWWVRQAPGKGLEWVSVIGSSGGTTVYADSVKGRFTVSRDNSKNTLYLQMNSLRAEDTAVYYCAREWMDHSRPYYYYGMDVWGQGTLVTVSS
# scFv (part 2 of 2): B2 scFv (part 2 of 2) with L27I, G28S, D29S, K30S, F31W, A32V, E56G
# modifications: left off: small tags and cut ends
# notes: as for B1
# B6: Abet0378: optimized anti-Aβ1-42 clone; amber stop codon at VL position 91 read as glutamine (protein)
# scFv (part 1 of 2): EVQLLESGGGLVQPGGSLRLSCAASGFPFETDIMWWVRQAPGKGLEWVSVIGTNTDNVAYADSVKGRFTISRDNSKNTLYLQMNSLRAEDTAVYYCAREWMDHSRPYYYYGMDVWGQGTLVTVSS
# scFv (part 2 of 2): B2 scFv (part 2 of 2) with G28E, E56G
# modifications: left off: small tags and cut ends
# notes: optimized anti-Aβ1-42 clone; amber stop codon at VL position 91 read as glutamine
# B7: Abet0342: optimized anti-Aβ1-42 clone derived from Abet0144-GL (protein)
# scFv (part 1 of 2): B3 scFv (part 1 of 2) with G30R, P31R, P33V, K53A, D54Q, S58K, T59A, D77N, K87R
# scFv (part 2 of 2): B2 scFv (part 2 of 2) with G28E, E56G, H68D, T80M, S88Q, S89A, T92S, V93T
# modifications: left off: small tags and cut ends
# notes: as for B1
# B8: Abet0343: optimized anti-Aβ1-42 clone from VH1:VH2:VL3 recombination library (protein)
# scFv (part 1 of 2): B6 scFv (part 1 of 2) with P28N, E30N, T31H, D32Q, I33V, T53K, N54T, T55N, D56E, V58I
# scFv (part 2 of 2): B1 scFv (part 2 of 2) with G82E, A88S, T89S, N92T, F93V
# modifications: left off: small tags and cut ends
# notes: optimized anti-Aβ1-42 clone from VH1:VH2:VL3 recombination library
# B9: Abet0372: optimized anti-Aβ1-42 clone derived from Abet0144-GL (protein)
# scFv (part 1 of 2): EVQLLESGGGLVQPGGSLRLSCAASSDMFNIETMWWVRQAPGKGLEWVSVIGKGMNNVSYADSVKGRFTISRDNSKNTLYLQMNSLRAEDTAVYYCAREWMDHSRPYYYYGMDVWGQGTLVTVSS
# scFv (part 2 of 2): B2 scFv (part 2 of 2) with G28E, E56G
# modifications: left off: small tags and cut ends
# notes: as for B1
# B10: Abet0329: optimized anti-Aβ1-42 clone derived from Abet0144-GL (protein)
# scFv (part 1 of 2): EVQLLESGGGLVQPGGSLRLSCAASTFNLKRETMWWVRQAPGKGLEWVSVIGSHQERTSYADSVKGRFTISRDNSKNTLYLQMNSLRAEDTAVYYCAREWMDHSRPYYYYGMDVWGQGTLVTVSS
# scFv (part 2 of 2): B2 scFv (part 2 of 2) with L27V, G28S, F31W, A32M, S33T, E56G
# modifications: left off: small tags and cut ends
# notes: as for B1
# B11: Abet0323b: optimized anti-Aβ1-42 clone derived from Abet0144-GL (protein)
# scFv (part 1 of 2): B6 scFv (part 1 of 2) with G26T, F27S, P28T, E30Q, T31E, I33T, T53P, T55P, D56K, V58N
# scFv (part 2 of 2): B2 scFv (part 2 of 2) with G28E, E56G, I57V, T104I
# modifications: left off: small tags and cut ends
# notes: as for B1
# B12: Abet0328: optimized anti-Aβ1-42 clone derived from Abet0144-GL (protein)
# scFv (part 1 of 2): EVQLLESGGGLVQPGGSLRLSCAASRDPFKADTMWWVRQAPRKRLEWVSVIGAHTTNSAYADSVKGRFTISRDNSKNTLYLQMNSLRAEDTAVYYCAREWMDRSRPYYYYGMDVWGQGTLVTVSS
# scFv (part 2 of 2): B2 scFv (part 2 of 2) with A18V, H25R, G28E, E56G, I57V
# modifications: left off: small tags and cut ends
# notes: as for B1
# B13: Abet0373: optimized anti-Aβ1-42 clone derived from Abet0144-GL (protein)
# scFv (part 1 of 2): EVQLLESGGGLVQPGGSLRLSCVASGFDFERSVMWWVRQAPGKRLEWVSVIGSGKTNITYADSVKGRFTISRDNSKNTLYLQMNSLRAEDTAVYYCAREWMDHSRPYYYYGMDVWGQGTLVTVSS
# scFv (part 2 of 2): B2 scFv (part 2 of 2) with G28E
# modifications: left off: small tags and cut ends
# notes: as for B1
# B14: Abet0374: optimized anti-Aβ1-42 clone derived from Abet0144-GL (protein)
# scFv (part 1 of 2): EVQLLESGGGLVQPGGSLRLSCAASGFQFKDTPMWWVRQAPGKGLEWVSVIGDQNHKKAYADSVKGRFTISRDNSKNTLYLQMNSLRAEDTAVYYCAREWMDHSRPYYYYGMDAWGQGTLVTVSS
# scFv (part 2 of 2): B2 scFv (part 2 of 2) with S13T, D29G, E56G, S66F
# modifications: left off: small tags and cut ends
# notes: as for B1
# B15: Abet0332: optimized anti-Aβ1-42 clone derived from Abet0144-GL (protein)
# scFv (part 1 of 2): EVQLLESGGGLVQPGESLRLSCAASSDSWHTDIMWWVRQAPGKRLEWVSVIGNSNKKIAYADSVKGRFTISRDNSKNTLYLQMNSLRAEDTAVYYCAREWMDHSRPYYYYGMDVWGQGTLVTVSS
# scFv (part 2 of 2): SYELTQPPSVSVSPGQTASITCSGHNIGAKWVSWYQQKPGQSPILVIYRDDKRPSGIPERFSASNSGHTATLTISGTQATDEADYYCQAQGQVTRSFGGGTKLTVL
# modifications: left off: small tags and cut ends
# notes: as for B1
# B16: Abet0370: optimized anti-Aβ1-42 clone derived from Abet0144-GL (protein)
# scFv (part 1 of 2): EVQLLESGGGLVQPGGSLRLSCAASGFHFPMSAMWWVRQAPGKGLEWVSVIGETPERQAYADSVKGRFTISRDNSKSTLYLQMNSLRAEDTAVYYCAREWMDHSRPYYYYGMDVWGQGTLVTVSS
# scFv (part 2 of 2): SYELTQPPSVSVSPGQTASITCTTPHFNSKFASWYQQKPGQSPVLVIYRDDKRPSGIPERFSASNSGHTATLTISGTQAMDEADYYCQAQDSTTRVFGGGTRLTVL
# modifications: left off: small tags and cut ends
# notes: as for B1
# Molecular target: T1, human Amyloid beta 1-42 peptide (Homo sapiens, UniProt P05067)
# T1 construct: biotinylated human Amyloid beta 1-42 peptide (rpeptide, USA; cat: A1117); purchased rPeptide, USA A1117; host or cells: synthetic peptide
# T1 sequence (P05067 672-713): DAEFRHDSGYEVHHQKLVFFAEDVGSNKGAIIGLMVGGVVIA
# Assay: Surface Plasmon Resonance kinetic profiling of purified scFv (ProteOn)
# Type: binding
# Conditions: biotinylated human Amyloid beta 1-42 on streptavidin chip
# From the text: Surface Plasmon Resonance was used to analyse the purified scFv clones that had shown significant improvement in binding affinity for human Amyloid beta 1-42 peptide over the parent sequence, Abet0144-GL, in the HTRF™ epitope competition assay (sections 1.3-1.6). Briefly, the ProteOn Protein Interaction Array System (BioRad, USA) was used to assess the kinetic parameters of the interaction between each purified scFv and synthetically produced human Amyloid beta 1-42 peptide. These experiments were performed essentially as described by Karlsson et al. (Karlsson et al., 1991).
# The affinity of binding between each test scFv and human Amyloid beta 1-42 was estimated using assays in which biotinylated synthetic human Amyloid beta 1-42 peptide (rPeptide, USA; cat: Al 117) was non-covalently bound via a biotin/streptavidin interaction to a proprietary streptavidin chip (NTA 176-5021) at five different surface densities. The chip surface was regenerated between cycles by a single 60 second injection of 10 mM Glycine pH 2.0 to remove scFv bound to the peptide.
# Each scFv at 100-200 nM was sequentially passed over the peptide surface for a sufficient amount of time to observe sensorgrams that could be fitted to an appropriate binding model with confidence. An irrelevant scFv blank was subtracted from the main dataset to reduce the impact of any buffer artefacts or non-specific binding effects. An appropriate binding model was then fitted to the data.
Molecule,ka [M⁻¹ s⁻¹],kd [s⁻¹]
B1,134000,4.39e-05
B2,203000,0.000165
B3,187000,9e-05
B4,77500,5.73e-05
B5,357000,0.000272
B6,136000,6.41e-05
B7,136000,5.73e-05
B8,120000,2.25e-05
B9,243000,0.000176
B10,197000,0.000138
B11,210000,0.000188
B12,141000,0.000103
B13,185000,8.92e-05
B14,256000,6.04e-05
B15,329000,0.000129
B16,119000,7.76e-05

# Source: patent US20190262327A1, “COMBINATION OF A BACE INHIBITOR AND AN ANTIBODY OR ANTIGEN-BINDING FRAGMENT FOR THE TREATMENT OF A DISORDER ASSOCIATED WITH THE ACCUMULATION OF AMYLOID BETA” (ASTRAZENECA AB, priority 2016, published 2019)
